Assay results taken from US11434503.

Test system: piggyBac transposase wild type (Trichoplusia ni)
Experiment: cell_activity
Details: yeast excision assay; reference

Sequence of piggyBac transposase wild type (Trichoplusia ni) (chain, as listed by the source): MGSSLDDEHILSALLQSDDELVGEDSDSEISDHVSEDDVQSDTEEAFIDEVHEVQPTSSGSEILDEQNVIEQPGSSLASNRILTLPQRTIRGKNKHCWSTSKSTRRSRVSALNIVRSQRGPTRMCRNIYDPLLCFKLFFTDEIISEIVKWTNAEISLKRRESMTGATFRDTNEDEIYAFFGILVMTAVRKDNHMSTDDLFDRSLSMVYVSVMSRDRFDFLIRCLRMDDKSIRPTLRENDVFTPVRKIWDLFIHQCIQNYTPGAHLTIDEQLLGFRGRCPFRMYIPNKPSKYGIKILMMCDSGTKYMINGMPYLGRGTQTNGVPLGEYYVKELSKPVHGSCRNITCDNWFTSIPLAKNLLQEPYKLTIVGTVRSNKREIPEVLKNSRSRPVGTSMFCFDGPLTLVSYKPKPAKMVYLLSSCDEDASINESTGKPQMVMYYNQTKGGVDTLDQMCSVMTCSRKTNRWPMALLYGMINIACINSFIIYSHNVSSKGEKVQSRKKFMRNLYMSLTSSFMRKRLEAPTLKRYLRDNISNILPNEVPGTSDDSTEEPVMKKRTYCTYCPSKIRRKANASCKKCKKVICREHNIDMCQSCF

Substance: piggyBac transposon ura- to ura+ excision cassette in yeast
- activity (fold (normalized)): 1
